# From patent US7834144B2 (priority 2005, dated 2010)
# Like-named read-outs stand apart in the source and are kept apart here. Where no end group is shown, it is not given here. [ ]: non-standard residue; d: D form. Nab = not defined here; Nbn = not defined here
# Tests used:
# PrP^Sc [1] = target: T1, PrP^Sc (Homo sapiens, UniProt P04156); conditions: Table 16
# PrPc [2] = target: T2, PrPc (Homo sapiens, UniProt P04156); conditions: Table 16
# PrP^Sc [3] = target: T1, PrP^Sc
# PrP^Sc [4] = target: T1, PrP^Sc; remark: listed apart in the source
# PrP^Sc [5] = target: T1, PrP^Sc; remark: listed apart in the source
# PrPc [6] = target: T2, PrPc
# PrP^Sc [7] = target: T1, PrP^Sc; conditions: folded PrP^Sc pulled down by XIIb
# [8] = H3PO4 (50 μl) 0.00007M, pH 4, NaOH (25 μl) 0.0031N
# [9] = H3PO4 (50 μl) 0.00075M, pH 3, NaOH (25 μl) 0.031N
# [10] = H3PO4 (50 μl) 0.12M, pH 2, NaOH (25 μl) 0.31N
# [11] = H3PO4 (50 μl) 0.5M, pH 1, NaOH (25 μl) 3.1N
# [12] = NaOH (50 μl) 0.0001M, pH 10, NaH2PO4 (20 μl) 0.0003M
# [13] = NaOH (50 μl) 0.001M, pH 11, NaH2PO4 (20 μl) 0.003M
# [14] = NaOH (50 μl) 0.1M, pH 12, NaH2PO4 (20 μl) 0.03M
# [15] = NaOH (50 μl) 0.1M, pH 13, NaH2PO4 (20 μl) 0.3M
# [16] = vCJD 10 nL BH/asy, 3F4 capture, C2-AP detection
# [17] = vCJD 10 nL BH/asy, C17 capture, C2-AP detection
substance,measurement,setting,value
"Peptoid Reagent XIIb: peptoid reagent comprising SEQ ID NO: 240, Nab-Nab-Nab-Nbn-Nab-Nbn, covalently bound to magnetic beads ([Nab][Nab][Nab][Nbn][Nab][Nbn]; reading uncertain; also: covalently bound to magnetic beads, printed as Nab-Nab-Nab-Nbn-Nab-Nbn)",S/N,"PrP^Sc [1]; H3PO4 0.00075M, pH 3",1
same,S/N,"PrP^Sc [1]; H3PO4 0.12M, pH 2",2
same,S/N,"PrP^Sc [1]; H3PO4 0.5M, pH 1",5
same,AVE vCJD + Plasma,PrP^Sc [1]; [8],7.6
same,AVE vCJD + Plasma,PrP^Sc [1]; [9],21.8
same,AVE vCJD + Plasma,PrP^Sc [1]; [10],14.6
same,AVE vCJD + Plasma,PrP^Sc [1]; [11],57.1
same,S/N,"PrP^Sc [1]; NaOH 0.0001M, pH 10",1
same,S/N,"PrP^Sc [1]; NaOH 0.001M, pH 11",2
same,S/N,"PrP^Sc [1]; NaOH 0.1M, pH 12",1
same,S/N,"PrP^Sc [1]; NaOH 0.1M, pH 13",7
same,AVE vCJD + Plasma,PrP^Sc [1]; [12],2.8
same,AVE vCJD + Plasma,PrP^Sc [1]; [13],8.8
same,AVE vCJD + Plasma,PrP^Sc [1]; [14],7.3
same,AVE vCJD + Plasma,PrP^Sc [1]; [15],36.9
same,AVE Plasma,"PrPc [2]; 50 μl GdnSCN 3M, pH 5.9, 50 μl NaHCO3, final pH 8.5",5.5
same,AVE Plasma,"PrPc [2]; 100 μl TBST, pH 7.5",2.2
same,AVE Plasma,PrPc [2]; [8],8.7
same,AVE Plasma,PrPc [2]; [9],19.9
same,AVE Plasma,PrPc [2]; [10],8.0
same,AVE Plasma,PrPc [2]; [11],11.9
same,AVE Plasma,PrPc [2]; [12],3.1
same,AVE Plasma,PrPc [2]; [13],3.6
same,AVE Plasma,PrPc [2]; [14],5.1
same,AVE Plasma,PrPc [2]; [15],5.2
same,"Avg LU, 3F4 Plate",PrP^Sc [3]; vCJD 0 nL BH/asy (background),4.55 LU
same,"Avg LU, C17 Plate",PrP^Sc [3]; vCJD 0 nL BH/asy (background),45.56 LU
same,"S/N, 3F4 Plate",PrP^Sc [3]; vCJD 0 nL BH/asy (background),1.0
same,"S/N, C17 Plate",PrP^Sc [3]; vCJD 0 nL BH/asy (background),1.0
same,"Avg LU, 3F4 Plate",PrP^Sc [3]; vCJD 1 nL BH/asy,8.90 LU
same,"Avg LU, C17 Plate",PrP^Sc [3]; vCJD 1 nL BH/asy,50.75 LU
same,"S/N, 3F4 Plate",PrP^Sc [3]; vCJD 1 nL BH/asy,2.0
same,"S/N, C17 Plate",PrP^Sc [3]; vCJD 1 nL BH/asy,1.1
same,"Avg LU, 3F4 Plate",PrP^Sc [3]; vCJD 5 nL BH/asy,19.34 LU
same,"Avg LU, C17 Plate",PrP^Sc [3]; vCJD 5 nL BH/asy,74.71 LU
same,"S/N, 3F4 Plate",PrP^Sc [3]; vCJD 5 nL BH/asy,4.3
same,"S/N, C17 Plate",PrP^Sc [3]; vCJD 5 nL BH/asy,1.6
same,"S/N, 3F4 Plate",PrP^Sc [3]; vCJD 10 nL BH/asy,13.2
same,"S/N, C17 Plate",PrP^Sc [3]; vCJD 10 nL BH/asy,2.7
same,"Avg LU, 3F4 Plate",PrP^Sc [3]; [16],60.07 LU
same,"Avg LU, C17 Plate",PrP^Sc [3]; [17],124.18 LU
same,"Avg LU, 3F4 Beads",PrP^Sc [4]; vCJD 0 nL BH/asy (background),1.62 LU
same,"Avg LU, C17 Beads",PrP^Sc [4]; vCJD 0 nL BH/asy (background),11.84 LU
same,"S/N, 3F4 Beads",PrP^Sc [4]; vCJD 0 nL BH/asy (background),1.0
same,"S/N, C17 Beads",PrP^Sc [4]; vCJD 0 nL BH/asy (background),1.0
same,"Avg LU, 3F4 Beads",PrP^Sc [4]; vCJD 1 nL BH/asy,3.11 LU
same,"Avg LU, C17 Beads",PrP^Sc [4]; vCJD 1 nL BH/asy,16.53 LU
same,"S/N, 3F4 Beads",PrP^Sc [4]; vCJD 1 nL BH/asy,1.9
same,"S/N, C17 Beads",PrP^Sc [4]; vCJD 1 nL BH/asy,1.4
same,"Avg LU, 3F4 Beads",PrP^Sc [4]; vCJD 5 nL BH/asy,2.25 LU
same,"Avg LU, C17 Beads",PrP^Sc [4]; vCJD 5 nL BH/asy,26.08 LU
same,"S/N, 3F4 Beads",PrP^Sc [4]; vCJD 5 nL BH/asy,1.4
same,"S/N, C17 Beads",PrP^Sc [4]; vCJD 5 nL BH/asy,2.2
same,"S/N, 3F4 Beads",PrP^Sc [4]; vCJD 10 nL BH/asy,1.7
same,"S/N, C17 Beads",PrP^Sc [4]; vCJD 10 nL BH/asy,3.5
same,"Avg LU, 3F4 Beads",PrP^Sc [4]; [16],2.83 LU
same,"Avg LU, C17 Beads",PrP^Sc [4]; [17],41.86 LU
same,"vCJD BH (RLU) ave, Pulldown","PrP^Sc [5]; 10 nL of 10% vCJD BH in 50% pooled normal human plasma, XIIb-beads, 0.1N NaOH",53.0 RLU
same,pulldown efficiency,PrP^Sc [5]; pulldown signal vs directly GdnSCN-denatured 10 nL 10% vCJD sample,~100%
same,"Nomal BH (RLU) ave, Pulldown","PrPc [6]; 10 nL of 10% normal BH in 50% pooled normal human plasma, XIIb-beads",9.9 RLU
same,"No BH (RLU) ave, Pulldown","PrPc [6]; no BH, 50% pooled normal human plasma, XIIb-beads (background)",9.0 RLU
same,GdnHCl1/2 (GdnHCl concentration at half-maximal denaturation),PrP^Sc [7]; sCJD brain homogenate,2.0 M
same,GdnHCl1/2 (GdnHCl concentration at half-maximal denaturation),PrP^Sc [7]; vCJD brain homogenate,1.6 M
